Test results published in the RNAGym collection of RNA variant scans (doi:10.7554/elife.80360).

B1: Hammerhead Ribozyme (parent)
chain: ACCGGAUGUGCUUUCCGGUCUGAUGAGUCCGUGAGGACGAAACAG

Variants of: B1
Experiment: self-cleavage, relative activity (ratio to wild type); higher = more cleavage; co-transcriptional

Variant | self-cleavage
C30A A41U | 0.377
C2U A34U | 0.972
C2U A34C | 0.933
U21C C29A | 0.37
G39U | 0.363
C15A C29A | 0.457
G8U A37U | 0.774
G27C A37C | 0.491
U14G A40U | 0.356
G4A G5A | 0.54
G33C G36A | 0.491
C20G A37U | 0.272
C15A G17A | 0.351
C3U A6G | 0.747
A6G C11U | 0.796
C2A U32A | 0.784
C2U G17A | 0.392
A26U G45A | 0.359
C3G G39A | 0.31
U28G A40C | 0.383
C3A U9A | 0.476
G25C A41C | 0.359
C11U C29G | 0.646
A1G U9A | 1.83

Variant | self-cleavage
U14A A41U | 0.296
U19C | 0.737
G25A G36U | 0.33
U13A C15A | 0.926
G5U A40C | 0.375
U12C G39C | 0.327
G27C G33C | 0.723
G10A C20G | 0.303
G5U U12A | 1.1
G18C A41C | 0.303
A34G A40G | 0.345
U9A G39C | 0.288
U12A A23C | 0.366
G25A C30A | 0.369
G27U G45U | 0.488
U19C C30U | 0.878
G5U G25A | 0.351
G8C U13A | 1.41
G17C C38U | 0.453
U24G C30G | 0.727
U21G G33A | 0.704
G22A C30A | 0.392
U28G A34C | 0.411
A1C U28C | 0.405

Variant | self-cleavage
A23C G35A | 0.397
C20G A23U | 0.317
A34G A41G | 0.339
U13G G39A | 0.332
U7C U28A | 0.504
U14A C43G | 0.334
C29U A44G | 1.27
G17U A34C | 0.46
U13G C43U | 0.596
U7G | 1.37
A1C G35A | 0.404
G5A A42G | 0.387
U28C C30U | 0.573
A1C G17U | 0.346
G10U G17C | 0.649
U13A U21G | 0.602
A34U C43G | 0.315
G25A A40U | 0.356
C30U G45A | 0.606
C30G G45A | 0.403
U12G C43U | 0.43
U12A U19G | 0.431
U13A G31C | 1.39
G17C G31A | 0.699

Variant | self-cleavage
G17C G31C | 0.563
U21G A40G | 0.345
C20G A34G | 0.245
C29A G35A | 0.618
G25U G31C | 0.298
C29U G39U | 0.369
G31U A37C | 1.25
C20G U28A | 0.268
U21G C38G | 0.303
C3U U24A | 1.24
A6U G10U | 0.747
G22U G36U | 0.301
G10C U21A | 0.533
C20U G31U | 0.718
G33A G35C | 0.787
C16U G36C | 0.375
G5U U24C | 0.922
U9A A41C | 0.455
G25C C43A | 0.302
U12G A34G | 0.909
C30U G33U | 1.18
C11G A37C | 1.11
A26U A40G | 0.344
C15G G45C | 0.379

Variant | self-cleavage
U12G U21C | 0.807
C15U U19A | 0.344
G25A A34U | 0.357
U24C G31A | 0.924
G36A A44U | 0.332
U9C U28C | 1.08
G18U A40G | 0.357
U12G | 0.976
G22U A37G | 0.417
G10C C15A | 0.591
U13G G35U | 0.873
U9A A23C | 0.46
G4A G8U | 0.696
U19A G31C | 0.384
C38G G45C | 0.491
G18A G36A | 0.544
G10U G25A | 0.313
G39C G45U | 0.328
C29U G31C | 0.673
C11U G45U | 0.497
A1U U28G | 0.436
U9C G25U | 0.309
G5C U32G | 0.452
G18C C30G | 0.372

Variant | self-cleavage
G4A G25A | 0.313
G18C A40U | 0.339
A34C A40C | 0.316
G33C G35A | 0.701
G5C A23U | 0.221
G4A U21G | 0.374
U19A U28C | 0.313
G33U G39C | 0.464
U24G G36U | 0.803
C29A G31U | 0.611
C29A G31A | 0.606
U7G C43A | 0.382
G8A G27A | 0.874
U7G U32C | 1.03
G5U C43A | 0.352
A6U C16U | 0.655
A23U G33C | 0.262
G18U C29U | 0.547
U7G G35C | 0.979
G5U A34U | 0.83
A6G U13G | 0.778
G4C U28A | 0.297
U14G G17A | 0.544
G18U G35U | 0.532

Variant | self-cleavage
A1C | 0.466
U13A G36A | 0.732
C29A U32G | 0.504
C15G G39C | 0.275
C15G G39U | 0.301
G5C C38A | 0.264
U13A A34U | 1.46
U14G A26U | 0.569
G31C G35U | 0.698
U19G A40U | 0.323
G5C C20A | 0.271
U21A G39U | 0.301
U28G A37U | 0.843
C15U G27C | 0.749
A34G G45U | 0.544
A1U G17C | 0.393
C30A G45C | 0.454
A23C A44C | 0.39
G17A A23C | 0.325
U14C C15A | 0.72
G8C C15G | 0.469
G17A G35U | 0.455
G25A C43G | 0.338
